# T1: IRF-7 DBD wild type (mouse, UniProt P70434 1-134)
# T1 sequence: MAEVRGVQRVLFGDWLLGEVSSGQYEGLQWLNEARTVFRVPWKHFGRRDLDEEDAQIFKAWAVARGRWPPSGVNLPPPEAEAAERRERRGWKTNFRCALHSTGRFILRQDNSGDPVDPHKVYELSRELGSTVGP
# T2: IRF-7 DBD H44A (mouse, UniProt P70434 1-134, H44A)
# T2 sequence: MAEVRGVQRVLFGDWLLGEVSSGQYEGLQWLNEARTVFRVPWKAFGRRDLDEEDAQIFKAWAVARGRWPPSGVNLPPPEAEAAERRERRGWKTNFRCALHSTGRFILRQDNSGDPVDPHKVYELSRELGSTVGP
# T3: IRF-3 DBD wild type (human, UniProt Q14653 1-113)
# T3 sequence: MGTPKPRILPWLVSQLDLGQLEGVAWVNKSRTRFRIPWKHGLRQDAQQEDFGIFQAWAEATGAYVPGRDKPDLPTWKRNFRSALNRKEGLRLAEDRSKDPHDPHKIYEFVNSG
# T4: IRF-3 DBD H40A (human, UniProt Q14653 1-113, H40A)
# T4 sequence: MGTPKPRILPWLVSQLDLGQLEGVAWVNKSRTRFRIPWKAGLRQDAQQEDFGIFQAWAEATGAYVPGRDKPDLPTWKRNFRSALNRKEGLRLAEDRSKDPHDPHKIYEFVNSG
# B1: PRDI 15-mer duplex (dsDNA)
# DNA 1: GAGAAGTGAAAGTGG
# DNA 2: CCACTTTCACTTCTC
# Key:
# Assay in all cases: fluorescence anisotropy
# [1] = target: T1, IRF-7 DBD wild type
# [2] = target: T2, IRF-7 DBD H44A
# [3] = target: T3, IRF-3 DBD wild type
# [4] = target: T4, IRF-3 DBD H40A
binder,measurement,setting,value
B1,Kd,[1],630 nM
same,Kd,[2],532 nM
same,Kd,[3],486 nM
same,Kd,[4],1710 nM

# — PMC3167601
